Test results reported in patent US20220177587A1, “METHODS AND USES OF VARIANT CD80 FUSION PROTEINS AND RELATED CONSTRUCTS” (Alpine Immune Sciences, Inc., priority 2018, published 2022).
Read-outs that look alike come from different tables or passages of the source.

Experiments:
human CTLA-4 (human) = human CTLA-4 (human) (UniProt P16410); assay: flow cytometry, CHO cells stably expressing CTLA4
PD-L1 (human) [1] = target: PD-L1 (human) (UniProt Q9NZQ7); assay: flow cytometry, CHO cells stably expressing PD-L1
CD28 (human) [2] = target: CD28 (human) (UniProt P10747); assay: flow cytometry, Jurkat cells (CD28)
PD-L1 (human) [3] = target: PD-L1 (human) (UniProt Q9NZQ7)
Target sequence in this assay (Q9NZQ7 19-290): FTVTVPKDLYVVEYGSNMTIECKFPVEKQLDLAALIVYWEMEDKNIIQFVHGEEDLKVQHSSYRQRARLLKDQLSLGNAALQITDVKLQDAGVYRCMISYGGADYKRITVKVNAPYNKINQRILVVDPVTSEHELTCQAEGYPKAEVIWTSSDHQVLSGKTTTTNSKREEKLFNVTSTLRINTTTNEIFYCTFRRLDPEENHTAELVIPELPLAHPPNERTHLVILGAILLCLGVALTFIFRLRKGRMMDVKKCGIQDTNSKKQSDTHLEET

CD28 (human) [4] = target: CD28 (human) (UniProt P10747)
PD-L1 (human) [5] = target: PD-L1 (human) (UniProt Q9NZQ7); assay: flow cytometry, CHO cells expressing PD-L1
Target sequence in this assay (Q9NZQ7 19-290): as above

CD28 (human) [6] = target: CD28 (human) (UniProt P10747); assay: flow cytometry, Jurkat cells (CD28); remark: listed apart in the source

Sequence of human CTLA-4 (human) (P16410 36-223): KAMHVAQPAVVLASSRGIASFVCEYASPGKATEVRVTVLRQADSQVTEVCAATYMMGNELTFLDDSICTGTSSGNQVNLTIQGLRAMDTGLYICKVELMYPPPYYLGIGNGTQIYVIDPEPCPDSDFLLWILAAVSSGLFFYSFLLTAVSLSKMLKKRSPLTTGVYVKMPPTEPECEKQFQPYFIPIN

Row | MFI at 33.3 nM (human CTLA-4 (human)) [MFI] | MFI at 33.3 nM (PD-L1 (human) [1]) [MFI] | MFI at 33.3 nM (CD28 (human) [2]) [MFI] | Jurkat/IL2 reporter RLU at 50 nM, K562/OKT3/PD-L1 aAPC (PD-L1 (human) [3]) [RLU] | Jurkat/IL2 reporter RLU at 50 nM, K562/OKT3/PD-L1 aAPC (CD28 (human) [4]) [RLU] | Substance | other results
1 | 3230 | 1670 | 98.7 |  |  | variant CD80 IgV-Fc A26E/M47L/V68M/A71G (Fc fusion) | 
2 |  |  |  | 2650 | 2650 | CD80 H18L/V22A/E35D/M47L/N48T/L85Q IgV-Fc (inert) (Fc fusion) | 
3 |  |  |  | 481 | 481 | CD80 Q33L/E35D/T41S/M47V IgV-Fc (inert) (Fc fusion) | 
4 | 22100 | 14600 | 1270 |  |  | variant CD80 IgV-Fc A26E/E35D/M47L/A71G/D90G (Fc fusion) | 
5 |  |  |  |  |  | CD80 E35D/M47I/V68M/Y87N IgV-Fc (Fc fusion) | MFI at 33.3 nM (PD-L1 (human) [5]): 13100 MFI
6 |  |  |  | 504 | 504 | CD80 Q33K/E35D/D46V/L85Q IgV-Fc (inert) (Fc fusion) | 
7 |  |  |  | 393 | 393 | CD80 Q33L/E35D/M47V IgV-Fc (inert) (Fc fusion) | 
8 |  | 12600 | 135 |  |  | variant CD80 IgV-Fc A26E/E35D/V68M/A71G (Fc fusion) | 
9 |  |  |  | 1090 | 1090 | CD80 E35D/D46E/M47V/L97Q IgV-Fc (inert) (Fc fusion) | 
10 |  |  |  | 473 | 473 | CD80 Q33L/E35D/M43V/M47I/A71G IgV-Fc (inert) (Fc fusion) | 
11 | 24300 | 30100 | 2720 |  |  | variant CD80 IgV-Fc H18Y/E35D/V68M/A71G/D90G (Fc fusion) | 
12 |  |  |  | 423 | 423 | CD80 Q33L/E35D/M47I IgV-Fc (inert) (Fc fusion) | 
13 |  |  |  | 602 | 602 | CD80 E35D/M47I/K54R/L85E IgV-Fc (inert) (Fc fusion) | 
14 |  |  |  | 2980 | 2980 | CD80 H18Y/E35D/M47L IgV-Fc (inert) (Fc fusion) | 
15 |  |  |  | 394 | 394 | CD80 Q33L/E35D/M47L/A71G/F92S IgV-Fc (inert) (Fc fusion) | 
16 | 22400 | 11900 |  |  |  | variant CD80 IgV-Fc H18Y/E35D/M47L/A71G (Fc fusion) | 
17 |  |  |  | 408 | 408 | CD80 H18Y/A26E/Q33L/E35D/M47L/L85Q IgV-Fc (inert) (Fc fusion) | 
18 | 21900 | 10600 | 2580 |  |  | variant CD80 IgV-Fc A26E/M47L/V68M/D90G (Fc fusion) | 
19 |  |  |  | 556 | 556 | CD80 Q33L/E35D/M47V/L85Q IgV-Fc (inert) (Fc fusion) | 
20 |  |  |  | 432 | 432 | CD80 Q33L/E35D/M47I/L85Q IgV-Fc (inert) (Fc fusion) | 
21 | 21800 | 28100 | 2790 |  |  | variant CD80 IgV-Fc A26E/M47L/V68M/A71G/D90G (Fc fusion) | 
22 |  |  |  | 569 | 569 | CD80 A26E/Q33R/E35D/M47L/L85Q/K86E IgV-Fc (inert) (Fc fusion) | 
23 | 25400 | 28500 | 526 |  |  | variant CD80 IgV-Fc H18Y/A26E/E35D/M47L/V68M/A71G (Fc fusion) | Fold change to WT CD80 (human CTLA-4 (human)): 18.7 fold; Fold change to WT CD80 (PD-L1 (human) [1]): 655 fold

Row | MFI at 33.3 nM (human CTLA-4 (human)) [MFI] | MFI at 33.3 nM (PD-L1 (human) [1]) [MFI] | MFI at 33.3 nM (CD28 (human) [2]) [MFI] | Jurkat/IL2 reporter RLU at 50 nM, K562/OKT3/PD-L1 aAPC (PD-L1 (human) [3]) [RLU] | Jurkat/IL2 reporter RLU at 50 nM, K562/OKT3/PD-L1 aAPC (CD28 (human) [4]) [RLU] | Substance | other results
24 |  |  |  | 576 | 576 | CD80 E35D/M47V/A71G/L85M/L97Q IgV-Fc (inert) (Fc fusion) | 
25 |  | 16900 |  |  |  | variant CD80 IgV-Fc H18Y/A26E/E35D/M47L/A71G/D90G (Fc fusion) | 
26 | 23000 | 13300 | 1270 |  |  | variant CD80 IgV-Fc H18Y/E35D/M47L/A71G/D90G (Fc fusion) | Fold change to WT CD80 (human CTLA-4 (human)): 16.9 fold; Fold change to WT CD80 (PD-L1 (human) [1]): 306 fold
27 | 24600 | 27800 | 417 |  |  | variant CD80 IgV-Fc A26E/E35D/M47L/V68M/A71G (Fc fusion) | Fold change to WT CD80 (human CTLA-4 (human)): 18.1 fold; Fold change to WT CD80 (PD-L1 (human) [1]): 638 fold
28 | 19900 |  | 2000 |  |  | variant CD80 IgV-Fc H18Y/A26E/A71G/D90G (Fc fusion) | 
29 |  | 6380 | 42.3 |  |  | CD80 ECD-Fc (Fc fusion) | 
30 | 24700 | 27900 | 806 |  |  | variant CD80 IgV-Fc E35D/M47L/V68M/A71G (Fc fusion) | Fold change to WT CD80 (human CTLA-4 (human)): 18.1 fold; Fold change to WT CD80 (PD-L1 (human) [1]): 639 fold
31 |  | 28500 | 1190 |  |  | variant CD80 IgV-Fc H18Y/M47L/V68M/A71G (Fc fusion) | 
32 |  | 27400 | 3390 |  |  | variant CD80 IgV-Fc H18Y/E35D/M47L/V68M/D90G (Fc fusion) | 
33 | 22200 | 29500 |  |  |  | variant CD80 IgV-Fc H18Y/M47L/V68M/A71G/D90G (Fc fusion) | 
34 | 26000 | 29400 | 3070 |  |  | variant CD80 IgV-Fc E35D/M47L/V68M/A71G/D90G (Fc fusion) | 
35 | 23300 | 28000 | 2840 |  |  | variant CD80 IgV-Fc E35D/V68M/A71G/D90G (Fc fusion) | 
36 |  | 10000 |  |  |  | variant CD80 IgV-Fc H18Y/A26E/E35D/D90G (Fc fusion) | 
37 | 20900 | 17900 | 372 |  |  | variant CD80 IgV-Fc H18Y/A26E/E35D/V68M (Fc fusion) | 
38 |  |  |  |  |  | CD80 V22D/E24D/E35D/M47L/V68M/L85M/D90G IgV-Fc (Fc fusion) | MFI at 33.3 nM (PD-L1 (human) [5]): 19000 MFI; MFI at 33.3 nM (CD28 (human) [6]): 1180 MFI
39 | 18200 | 10800 | 1600 |  |  | variant CD80 IgV-Fc H18Y/M47L/A71G/D90G (Fc fusion) | 
40 |  |  |  |  |  | CD80 E35D/D46E/M47L/V68M/T79M/L85M IgV-Fc (Fc fusion) | MFI at 33.3 nM (PD-L1 (human) [5]): 8640 MFI; MFI at 33.3 nM (CD28 (human) [6]): 403 MFI
41 |  |  |  |  |  | CD80 V22D/E24D/E35D/M47L/V68M IgV-Fc (Fc fusion) | MFI at 33.3 nM (PD-L1 (human) [5]): 15400 MFI; MFI at 33.3 nM (CD28 (human) [6]): 1250 MFI
42 |  |  |  |  |  | CD80 IgV-Fc A26E/Q27R/E35D/M47L/N48Y/L85Q (Fc fusion) | MFI at 33.3 nM (CD28 (human) [6]): 78 MFI
43 | 26700 | 25000 |  |  |  | variant CD80 IgV-Fc A26E/E35D/M47L/V68M/D90G (Fc fusion) | 
44 |  |  |  |  |  | CD80 T13R/E35D/M47L/V68M IgV-Fc (Fc fusion) | MFI at 33.3 nM (PD-L1 (human) [5]): 20000 MFI; MFI at 33.3 nM (CD28 (human) [6]): 15.6 MFI
45 | 121 | 31700 | 2560 |  |  | variant CD80 IgV-Fc H18Y/A26E/M47L/V68M/A71G/D90G (Fc fusion) | Fold change to WT CD80 (PD-L1 (human) [1]): 727 fold; Fold change to WT CD80 (CD28 (human) [2]): 58.2 fold
46 |  |  |  |  |  | CD80 E35D/D46E/M47L/V68M/A71G/Y87C/K93R IgV-Fc (Fc fusion) | MFI at 33.3 nM (PD-L1 (human) [5]): 24300 MFI
